Where a chain is given by its changes, count along the chain named. Names and notes keep the numbering of the source. Blank lines part the entries; values can stand above or below the binder they belong to.
Legend:
[1] = molecular target: T1, TWEAK (human, UniProt O43508 94-249, limits assumed); assay: SPR (Biacore), TWEAK amine-coupled on C1 chip, bispecific antibody as analyte, 1:1 Langmuir
T1 construct: The method paragraph says only 'TWEAK'; also called human TWEAK; TNF-related weak inducer of apoptosis
T1 sequence (looked up): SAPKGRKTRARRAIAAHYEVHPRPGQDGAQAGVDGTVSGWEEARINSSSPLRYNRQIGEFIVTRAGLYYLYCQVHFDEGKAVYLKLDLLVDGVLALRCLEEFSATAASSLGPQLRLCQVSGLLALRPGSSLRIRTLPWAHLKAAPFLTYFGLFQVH
Method: Around 100 RU of TWEAK was immobilized on the C1 chip surface at pH 5.0 using an amine coupling kit supplied by the GE Healthcare. The sample and system buffer was PBS-T (10 mM phosphate buffered saline including 0.05% Tween 20) pH 7.4. Association was measured by injection the bispecific antibody in various concentrations in solution for 3 min at a flow of 30 μl/min starting with 50 nM in 1:1 serial dilutions. The dissociation phase was monitored for up to 10 min and triggered by switching from the sample solution to running buffer. The surface was regenerated three times by 30 sec wash with a 3 M MgCl2 solution at a flow rate of 30 μl/min. Bulk refractive index differences were corrected by subtracting the response obtained from a blank-coupled surface. Blank injections are also subtracted (=double referencing). For calculation of KD and other kinetic parameters, the Langmuir 1:1 model was used.
(§1) Binding of the multispecific antibodies to their respective target antigens, i.e. IL17 and TWEAK, was assessed by Biacore® as described in the general methods section.

[2] = molecular target: T2, human IL17 (human, UniProt Q16552 24-155); assay: SPR (Biacore), bispecific antibody captured by anti-human F(ab')2, human IL17 as analyte, 1:1 Langmuir
T2 construct: for that reason an apparent KD is reported; also called IL17-A
T2 sequence (looked up): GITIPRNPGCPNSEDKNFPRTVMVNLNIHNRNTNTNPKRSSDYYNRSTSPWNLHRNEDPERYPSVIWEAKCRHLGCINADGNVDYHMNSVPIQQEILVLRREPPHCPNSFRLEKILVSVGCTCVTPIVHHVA
Method: (§2) Around 6000 resonance units (RU) of the capturing system (15 μg/ml goat anti human F(ab′)2; Order Code: 28958325; GE Healthcare Bio-Sciences AB, Schweden) were coupled on a CMS chip at pH 5.0 by using an amine coupling kit supplied by the GE Healthcare. The sample and system buffer was PBS-T (10 mM phosphate buffered saline including 0.05% Tween 20) pH 7.4. The bispecific antibody was captured by injecting a 50 nM solution for 90 sec at a flow of 10 μl/min. Association was measured by injection human IL17 in various concentrations in solution for 3 min at a flow of 30 μl/min starting with 50 nM in 1:1 serial dilutions. The dissociation phase was monitored for up to 10 min and triggered by switching from the sample solution to running buffer. The surface was regenerated twice by 60 sec wash with a 10 mM glycine pH 2.1 solution at a flow rate of 30 μl/min. Bulk refractive index differences were corrected by subtracting the response obtained from a goat anti human F(ab′)2 surface. Blank injections are also subtracted (=double referencing). For calculation of apparent KD and other kinetic parameters, the Langmuir 1:1 model was used.
as §1

[3] = molecular target: T2, human IL17; assay: SPR (Biacore), bispecific antibody captured by anti-human F(ab')2, human IL17 as analyte, 1:1 Langmuir, apparent KD
Method: as §2, §1

- Kd [1]: < 0.1 nM
- koff [1]: 4.79e-05 s⁻¹
- kon [1]: 1.17e+06 M⁻¹ s⁻¹
- koff [2]: 0.00013 s⁻¹
- kon [2]: 1.39e+06 M⁻¹ s⁻¹
- Kd [3]: < 0.1 nM
B1: TweakIL17-0132 (bispecific antibody, human IgG4 S228P, kappa)
light 1: DIVMTQSPLSLPVTPGEPASISCRSSQSLVHSNGDTYFHWYLQKPGQSPQLLIYKVSNRFSGVPDRFSGSGSGTDFTLKISRVEAEDVGVYYCSQTTHAPFTFGQGTKLEIKRTVAAPSVFIFPPSDKRLKSGTASVVCLLNNFYPREAKVQWKVDNALQSGNSQESVTEQDSKDSTYSLSSTLTLSKADYEKHKVYACEVTHQGLSSPVTKSFNRGEC
heavy 1: EVQLVESGGGLVQPGGSLRLSCAASGFSLDSYGVHWVRQATGKGLEWVSVIWSDGTTTYNSALKSRFTISRENAKNSLYLQMNSLRAGDTAVYYCARDTHYRLYYYAMDYWGQGTTVTVSSASTKGPSVFPLAPCSRSTSESTAALGCLVEDYFPEPVTVSWNSGALTSGVHTFPAVLQSSGLYSLSSVVTVPSSSLGTKTYTCNVDHKPSNTKVDERVESKYGPPCPPCPAPEFEGGPSVFLFPPKPKDTLMISRTPEVTCVVVDVSQEDPEVQFNWYVDGVEVHNAKTKPREEQFNSTYRVVSVLTVLHQDWLNGKEYKCKVSNKGLPSSIEKTISKAKGQPREPQVCTLPPSQEEMTKNQVSLSCAVKGFYPSDIAVEWESNGQPENNYKTTPPVLDSDGSFFLVSRLTVDKSRWQEGNVFSCSVMHEALHNHYTQKSLSLSLGK
light 2: DIQMTQSPSSVSASVGDRVTITCQASQNIYSNLAWYQQKPGKAPKLLIYTASYLASGVPSRFSGSGSGTDYTLTISSLQPEDFATYYCQTAYYNSRPDTVAFGGGTKVEIKSSASTKGPSVFPLAPCSRSTSESTAALGCLVKDYFPEPVTVSWNSGALTSGVHTFPAVLQSSGLYSLSSVVTVPSSSLGTKTYTCNVDHKPSNTKVDKRVESKYG
heavy 2: QVQLVQSGAEVKKPGSSVKVSCKASGFDFSTYYMSWVRQAPGQGLEWMGTVYVRQGTTYYASWLNGRVTITADESTSTAYMELSSLRSEDTAVYYCARGGYNYDDAFVIWGQGTLVTVSSASVAAPSVFIFPPSDEQLKSGTASVVCLLNNFYPREAKVQWKVDNALQSGNSQESVTEQDSKDSTYSLSSTLTLSKADYEKHKVYACEVTHQGLSSPVTKSFNRGECPPCPPCPAPEFEGGPSVFLFPPKPKDTLMISRTPEVTCVVVDVSQEDPEVQFNWYVDGVEVHNAKTKPREEQFNSTYRVVSVLTVLHQDWLNGKEYKCKVSNKGLPSSIEKTISKAKGQPREPQVYTLPPCQEEMTKNQVSLWCLVKGFYPSDIAVEWESNGQPENNYKTTPPVLDSDGSFFLYSRLTVDKSRWQEGNVFSCSVMHEALHNHYTQKSLSLSLGK
notes: CrossMAb CH1-CL, knob-into-hole with S354C/Y349C

- Kd [1]: < 0.1 nM
- koff [1]: 3e-05 s⁻¹
- kon [1]: 870000 M⁻¹ s⁻¹
- koff [2]: 0.000208 s⁻¹
- kon [2]: 1.1e+07 M⁻¹ s⁻¹
- Kd [3]: < 0.1 nM
B2: TweakIL17-0134 (bispecific antibody, human IgG4 S228P, kappa)
light 1: B1 light 1 with K128E, R129K
heavy 1: B1 heavy 1 with E217K
light 2: B1 light 2
heavy 2: B1 heavy 2 with Q137E
notes: as for B1

— US20170129962A1 (Hoffmann-La Roche, published 2017)
